Measured values published in paper PMC9784018, “Rational Strategy for Designing Peptidomimetic Small Molecules Based on Cyclic Peptides Targeting Protein–Protein Interaction between CTLA-4 and B7-1” (Pharmaceuticals, 2022).
Positions of bridges follow the written chain, without caps; N, C: chain ends. MBP = not defined here

The compounds below were run against T1, CTLA-4 (Homo sapiens, UniProt P16410) (assay: E. coli lysate ELISA of MBP–peptide fusion proteins). Conditions: alanine mutants of C4m-310044 as MBP–peptide–His-tag fusion protein, compared with C4m-310044.
T1 sequence (P16410 36-223): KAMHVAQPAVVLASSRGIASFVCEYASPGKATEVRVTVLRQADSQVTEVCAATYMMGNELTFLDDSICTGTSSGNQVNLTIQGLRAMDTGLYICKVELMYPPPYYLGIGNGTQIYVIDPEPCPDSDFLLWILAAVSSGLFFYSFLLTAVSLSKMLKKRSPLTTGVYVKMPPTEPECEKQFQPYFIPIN
Type: binding
Description: We generated 14 alanine mutants as an MBP–peptide–His-tag fusion protein (Supplementary Figure S1A), and systematically investigated the effects of alanine substitution by lysate ELISA (Supplementary Figure S1B). […] These eight residues were regarded as important for the interaction between C4m-310044 peptide and CTLA-4. Of the eight residues, six (H2, P3, L5, S9, H11, and F12) were highly conserved even after affinity maturation of C4-302 (Figure 4). These six amino acids were essential residues for binding with CTLA-4. […] Neither of these two residues is involved in binding, but they seem to contribute to affinity. […]
(B) 14 variants shown in (A) were expressed as the MBP-peptide fusion protein. The binding activity of each on CTLA-4 was evaluated using lysate ELISA. The BL21(DE3) E. coli cells transformed with each alanine scanning mutant were grown in 100 μL of 2xYT/50 μg/mL ampicillin at 37 °C until OD600 of 0.5–0.8 was reached. After IPTG (0.5 mM) was added, the broth was incubated at 25 °C, with shaking overnight. The cell broth was lysed using lysis buffer (5 mg/mL lysozyme (FUJIFILM Wako) in PBS, 50% BugBuster ® (v/v) (Merck Millipore) at RT for 2 h, with shaking. The lysate was blocked with TBS/0.05% Tween-20/12.5% skim milk by incubating at RT for 0.5 h, shaking, then added to CTLA-4-immobilized wells on 384-plate and incubated at RT for 1.5 h. After washing and incubation with anti-FLAG M2 ®-peroxidase antibody (1:10,000; Sigma Aldrich) at RT for 1 h, the absorbance at 450 nm/ 650 nm was read with a microplate reader through the reaction with 1x TMB substrate solution and 2N

**Q.** For “F4A: alanine mutant of C4m-310044 as MBP–peptide–His-tag fusion protein ({MBP}-CLHPALPIVSHHFCGR-{His‑tag}; disulfide 1-14 (inferred); reading uncertain)”, which “absorbance in lysate ELISA” value is on record?
**A.** Its value is “same level of absorbance with C4m-310044”.

**Q.** For “H2A: alanine mutant of C4m-310044 as MBP–peptide–His-tag fusion protein ({MBP}-CLAPFLPIVSHHFCGR-{His‑tag}; disulfide 1-14 (inferred); reading uncertain)”, which “absorbance in lysate ELISA” value is on record?
**A.** Its value is “marked decrease in absorbance”.

**Q.** Which “absorbance in lysate ELISA” value does the source give for “R(+2)A: alanine mutant of C4m-310044 as MBP–peptide–His-tag fusion protein ({MBP}-CLHPFLPIVSHHFCGA-{His‑tag}; disulfide 1-14 (inferred); reading uncertain)” here?
**A.** The value was “same level of absorbance with C4m-310044”.

**Q.** With “H10A: alanine mutant of C4m-310044 as MBP–peptide–His-tag fusion protein ({MBP}-CLHPFLPIVSAHFCGR-{His‑tag}; disulfide 1-14 (inferred); reading uncertain)” as the compound, how does the “absorbance in lysate ELISA” value read?
**A.** The value was “same level of absorbance with C4m-310044”.

**Q.** “P3A: alanine mutant of C4m-310044 as MBP–peptide–His-tag fusion protein ({MBP}-CLHAFLPIVSHHFCGR-{His‑tag}; disulfide 1-14 (inferred); reading uncertain)” was tested. Which “absorbance in lysate ELISA” value did it give?
**A.** Its value is “marked decrease in absorbance”.

**Q.** For “L1A: alanine mutant of C4m-310044 as MBP–peptide–His-tag fusion protein ({MBP}-CAHPFLPIVSHHFCGR-{His‑tag}; disulfide 1-14 (inferred); reading uncertain)”, which “absorbance in lysate ELISA” value is on record?
**A.** The value was “same level of absorbance with C4m-310044”.

**Q.** Which “absorbance in lysate ELISA” value does the source give for “V8A: alanine mutant of C4m-310044 as MBP–peptide–His-tag fusion protein ({MBP}-CLHPFLPIASHHFCGR-{His‑tag}; disulfide 1-14 (inferred); reading uncertain)” here?
**A.** The value was “same level of absorbance with C4m-310044”.

**Q.** How did the “absorbance in lysate ELISA” value turn out when “G(+1)A: alanine mutant of C4m-310044 as MBP–peptide–His-tag fusion protein ({MBP}-CLHPFLPIVSHHFCAR-{His‑tag}; disulfide 1-14 (inferred); reading uncertain)” was run?
**A.** The value was “same level of absorbance with C4m-310044”.

**Q.** How did the “absorbance in lysate ELISA” value turn out when “S9A: alanine mutant of C4m-310044 as MBP–peptide–His-tag fusion protein ({MBP}-CLHPFLPIVAHHFCGR-{His‑tag}; disulfide 1-14 (inferred); reading uncertain)” was run?
**A.** Its value is “marked decrease in absorbance”.

**Q.** How did the “absorbance in lysate ELISA” value turn out when “F12A: alanine mutant of C4m-310044 as MBP–peptide–His-tag fusion protein ({MBP}-CLHPFLPIVSHHACGR-{His‑tag}; disulfide 1-14 (inferred); reading uncertain)” was run?
**A.** The value was “marked decrease in absorbance”.

**Q.** “H11A: alanine mutant of C4m-310044 as MBP–peptide–His-tag fusion protein ({MBP}-CLHPFLPIVSHAFCGR-{His‑tag}; disulfide 1-14 (inferred); reading uncertain)” was tested. Which “absorbance in lysate ELISA” value did it give?
**A.** Its value is “marked decrease in absorbance”.

**Q.** Which “absorbance in lysate ELISA” value does the source give for “P6A: alanine mutant of C4m-310044 as MBP–peptide–His-tag fusion protein ({MBP}-CLHPFLAIVSHHFCGR-{His‑tag}; disulfide 1-14 (inferred); reading uncertain)” here?
**A.** The value was “marked decrease in absorbance”.

**Q.** For “I7A: alanine mutant of C4m-310044 as MBP–peptide–His-tag fusion protein ({MBP}-CLHPFLPAVSHHFCGR-{His‑tag}; disulfide 1-14 (inferred); reading uncertain)”, which “absorbance in lysate ELISA” value is on record?
**A.** The value was “marked decrease in absorbance”.

**Q.** With “L5A: alanine mutant of C4m-310044 as MBP–peptide–His-tag fusion protein ({MBP}-CLHPFAPIVSHHFCGR-{His‑tag}; disulfide 1-14 (inferred); reading uncertain)” as the compound, how does the “absorbance in lysate ELISA” value read?
**A.** The value was “marked decrease in absorbance”.

Each compound was assayed against T2, interaction between CTLA-4 and B7-1 (Homo sapiens, UniProt P16410) (assay: CTLA-4:B7-1[Biotinylated] Inhibitor Screening Assay (BPS Bioscience kit)). Conditions: inhibition of CTLA-4:B7-1 interaction, luminescence, four-parameter logistic fit; read-out: IC50.
T2 construct: purchased BPS Bioscience Inc
T2 sequence (P16410 36-161 limits assumed): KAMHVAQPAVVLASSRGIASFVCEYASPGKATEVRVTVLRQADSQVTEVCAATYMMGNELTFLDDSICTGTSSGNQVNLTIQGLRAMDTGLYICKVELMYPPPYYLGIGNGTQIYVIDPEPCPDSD
Type: binding
Procedure: We prepared the C4m-3127 cyclic peptide using chemical synthesis and examined its properties. First, the inhibitory activity was tested using a kit (CTLA-4:B7-1[Biotinylated] Inhibitor Screening Assay, BPS Bioscience Inc.) (Figure 5A). […] In a sequence of C4m-3127, the GG linker behind C-terminal Cys had mutated into Glu and Arg.
A cyclic peptide with a low EC50 value was synthesized by adding glycine to the N-terminus at Toray Research Center.
(B) Flow cytometry affinity analysis.

**Q.** Which IC50 does the source give for `CC(C)[C@H]1ON(C(=O)OCc2ccccc2)[C@H]2CN(CCc3ccccc3)C(=O)[C@H](CCCNC(=N)N)N2C1=O` [PGF00452, Benzyl (3R,6S,9aS)-6-(3-guanidinopropyl)-3-isopropyl-4,7-dioxo-8-phenethylhexahydropyrazino [2,1-c][1,2,4]oxadiazine-1(6H)-carboxylate] here?
**A.** Its IC50 is 147 µM.

**Q.** Which IC50 does the source give for `CC(C)[C@H]1ON(C(=O)OCc2ccccc2)[C@H]2CN(CCc3ccccc3)C(=O)[C@H](Cc3c[nH]cn3)N2C1=O` [PGF00432, Benzyl (3R,6S,9aS)-6-((1H-imidazol-4-yl)methyl)-3-isopropyl-4,7-dioxo-8-phenethylhexahydropyrazino [2,1-c][1,2,4]oxadiazine-1(6H)-carboxylate] here?
**A.** The IC50 was 294 µM.

**Q.** With `N=C(N)NCCC[C@H]1C(=O)N(CCc2ccccc2)C[C@@H]2N(C(=O)OCc3ccccc3)O[C@H](CC3CCCCC3)C(=O)N21` [PGF00478, Benzyl (3R,6S,9aS)-3-(cyclohexylmethyl)-6-(3-guanidinopropyl)-4,7-dioxo-8-phenethylhexahydropyrazino [2,1-c][1,2,4]oxadiazine-1(6H)-carboxylate] as the compound, how does the IC50 read?
**A.** Its IC50 is 80 µM.

Same assay, conditions: values printed in Figure 7; read-out: IC50, CTLA-4/B7-1 interaction inhibitory activity

**Q.** `N=C(N)NCCC[C@H]1C(=O)N(CCc2ccccc2)C[C@@H]2N(C(=O)OCc3ccccc3)O[C@H](CC3CCCCC3)C(=O)N21` [PGF00478, Benzyl (3R,6S,9aS)-3-(cyclohexylmethyl)-6-(3-guanidinopropyl)-4,7-dioxo-8-phenethylhexahydropyrazino [2,1-c][1,2,4]oxadiazine-1(6H)-carboxylate] was tested. Which IC50 did it give?
**A.** The IC50 was 60 µM.
